Measurements from paper PMC5770569.

B1: Purified EGFL7 (SPRimager II experiments and blocking study) (natural protein)
chain: YRPGRRVCAVRAHGDPVSESFVQRVYQPFLTTCDGHRACSTYRTIYRTAYRRSPGLAPARPRYACCPGWKRTSGLPGACGAAICQPPCRNGGSCVQPGRCRCPAGWRGDTCQSDVDECSARRGGCPQRCVNTAGSYWCQCWEGHSLSADGTLCVPKGGPPRVAPNPTGVDSAMKEEVQRLQSRVDLLEEKLQLVLAPLHSLASQALEHGLPDPGSLLVHSFQQLGRIDSLSEQISFLEEQLGSCSCKKDS

Experiments:
[1] = target: Purified recombinant EGFL7 (Sino Biological Inc.) (human) (UniProt Q9UHF1); assay: SPR
[2] = target: Fluorescein-labeled E7p72; assay: flow cytometry on cells
[3] = target: E7p72, re-synthesized with a Cys for the SPR chip; assay: SPR
[4] = target: E7p74, re-synthesized with a Cys for the SPR chip; assay: SPR

Row | Molecule | koff [1] [s⁻¹] | percent decrease in the uptake of FITC-E7p72 by EA.hy926 cells with 3x EGFL7 [2] [%] | Kd [3] [nM] | Kd [4] [nM]
1 | A647-CPMV-PEG viral nanoparticle (control) | 0.00124 |  |  | 
2 | B1 |  | 64.5 | 13.2 | 14.3
